The labels stand for the following.
B1: SEQ 1 (Apt1) (ssRNA)
RNA: GGGAGCAGGAGAGAGGUCAGAUGGGCAGCAGAGGAUAGCGAAGUCAUUGAGCGCCUAUGCGUGCUAGUGUGA
modifications: 2'-F pyrimidines
B2: SEQ 37 (ssRNA)
RNA: CAGAUGGGCAGCAGAGGAUAGCGAAGUCAUUGAGCGCCUAUGCGUGCUAGUGUG
modifications: 2'-F pyrimidines
B3: SEQ 43 (ssRNA)
RNA: AGAGGUCAGAUGGUCUAGCCGGAGGAGUCAGUAAUCGGUAGACCUAUGCGUG
modifications: 2'-F pyrimidines
B4: SEQ 4 (ssRNA)
RNA: GGGAGCAGGAGAGAGGUCAGAUGCUAUAGCGAAGUCAUUGAGCGAGACAUAGGCCUAUGCGUGCUAGUGUGA
modifications: 2'-F pyrimidines
B5: SEQ 29 (ssRNA)
RNA: B4 RNA with U25G, A45C, A47U, C48G, A49U, U50C, A51C, G52A, G53A
modifications: 2'-F pyrimidines
B6: SEQ 2 (ssRNA)
RNA: B1 RNA with G25U, C26G, A27C, G28A, G31U, A32G
modifications: 2'-F pyrimidines
B7: SEQ 32 (ssRNA)
RNA: B1 RNA with A30G, A37G, A50G, A66G, U70G, G71A, A72G
modifications: 2'-F pyrimidines
B8: SEQ 5 (ssRNA)
RNA: B1 RNA with G24A, A27G, G28C, G31U, A35G, C39A, U44C, G51U, G53A
modifications: 2'-F pyrimidines
B9: SEQ 3 (ssRNA)
RNA: GGGAGCAGGAGAGAGGUCAGAUGUGUAAGGUCGGAAGUCAUGAACGGCCCGGACCUAUGCGUGCUAGUGUGA
modifications: 2'-F pyrimidines
B10: SEQ 36 (ssRNA)
RNA: GGGAGCAGGAGAGAGGUCAGAUGUAUAGCGAAGUCAUUGAGCGACAAAGCCGGCCUAUGCGUGCUAGUGUGA
modifications: 2'-F pyrimidines
B11: SEQ 30 (ssRNA)
RNA: GGGAGCAGGAGAGAGGUCAGAUGGUCUAGCCGGAGGAGUCAGUAAUCGGUAGACCUAUGCGUGCUAGUGUGA
modifications: 2'-F pyrimidines
B12: SEQ 33 (ssRNA)
RNA: GGGAGCAGGAGAGAGGUCAGAUGGAGGAGCCAGUGAUCGUUGACCUCAAUGCACCUAUGCGUGCUAGUGUGA
modifications: 2'-F pyrimidines
B13: SEQ 34 (ssRNA)
RNA: B12 RNA with C30A, U46C, C47A, A48C, A49C, U50G, C52G, A53U
modifications: 2'-F pyrimidines
B14: SEQ 35 (ssRNA)
RNA: B12 RNA with C30G, G35A, C45U, U46G, C47G, A48U, U50A, G51A, A53C
modifications: 2'-F pyrimidines
B15: SEQ 31 (ssRNA)
RNA: GGGAGCAGGAGAGAGGUCAGAUGGAAGUGGAGUCAGAUAUAGCAAUAUUAUGACCUAUGCGUGCUAGUGUGA
modifications: 2'-F pyrimidines
B16: SEQ 6 (ssRNA)
RNA: GGGAGCAGGAGAGAGGUCAGAUGGUGAUGCAUAGGAGUGGAGUCAGAUAUAGCCCUAUGCGUGCUAGUGUGA
modifications: 2'-F pyrimidines

Substitutions are numbered along the chain they refer to.

The first data set deals with T1, IL-17 (IL-17A) (Homo sapiens, UniProt Q16552 Q16552:24-155).
T1 sequence: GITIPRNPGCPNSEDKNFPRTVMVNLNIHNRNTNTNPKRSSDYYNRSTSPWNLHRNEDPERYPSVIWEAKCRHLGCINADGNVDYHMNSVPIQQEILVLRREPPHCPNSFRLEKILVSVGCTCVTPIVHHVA
The data set is described as follows: SPR. The following applies: tags: Peprotech; chain copies: 2.
On to GGAUAGCGAAGUCAUUGAGCGCC (ssRNA, 2'-F pyrimidines except c7; 2'-OMe at c7) [SEQ 40-3], for which the binding result was “binds”.
Same read-out and setting: next, GGAUAGAGAAGUCAUUGAGCGCC (ssRNA, 2'-F pyrimidines; 2'-OMe at a7) [SEQ 47]: “binds”; GGAUAGCGAAGUCAUCGAGCGCC (ssRNA, 2'-F pyrimidines) [SEQ 45]: “binds”.
Same read-out and setting: the same measure for GGAUAGCGAAGUCAUUGAGCACC (ssRNA, 2'-F pyrimidines) [SEQ 46]: “binds”; for GGAUAGCGAAGUCAUUGAGCGCC (ssRNA, 2'-F pyrimidines; 2'-OMe at g19) [SEQ 40-4]: “binds”.
As to GGAUAGCGAAGUCAUUGAGCGCC (ssRNA, 2'-F pyrimidines; 2'-OMe at a3) [SEQ 40-2], the binding result is recorded as “binds”.
Same read-out and setting: next, GGAUAGCGAAGACAUUGAGCGCC (ssRNA, 2'-F pyrimidines; 2'-OMe at a12) [SEQ 48]: “binds”.

Another data set addresses T1, IL-17 (IL-17A). As to the kind of experiment: SPR; 3' A16-tailed RNA on dT16 SA chip; solution A pH 7.6, Ca/Mg, 0.1 mg/mL tRNA. The settings on record: tags: Peprotech; chain copies: 2. Here is the method:
(§1) The binding activities for IL-17 of the nucleic acids shown by SEQ ID NOS:1-6 and 29-36 were evaluated by the surface plasmon resonance method. The measurements were taken using BIAcore 2000. The SA chip was used as the sensor chip, which had streptavidin immobilized thereon. Bound thereto was about 600 RU of a 16-nucleotide Poly dT with biotin bound to the 5′ end thereof. […] 20 μl, of human IL-17 for analyte, prepared at 0.5 was injected, with the addition of 0.1 mg/mL tRNA to lessen nonspecific adsorption. Solution A was used as a running buffer. […] Here, 30N refers to the nucleic acid pool used for the first round of SELEX, comprising a 30-nucleotide random sequence. As an example, a sensorgram showing a status of the binding of the aptamer shown by SEQ ID NO:1 (Apt1) and human IL-17 is shown in FIG. 7. From the above, it was shown that the nucleic acids shown by SEQ ID NOS:1-6 and 29-36 are aptamers that bind to IL-17.
In general terms: SPR reads the build-up and loss of mass on a sensor chip optically.
On to B1, for which the binding result was “binds”.

For a further data set, the target named is T1, IL-17 (IL-17A). As to the kind of experiment: SPR; same as Example 1. The settings on record: tags: Peprotech; chain copies: 2.
Take GCAGCAGAGGAUAGCGAAGUCAUUGAGCGCCUAUGCGUGC (ssRNA, 2'-F pyrimidines) [SEQ 38]: the binding result is recorded as “binds”.
Same read-out and setting: next, GGGGAUAGCGAAGUCAUUGAGCGCCCC (ssRNA, 2'-F pyrimidines) [SEQ 41]: “binds”; GUGCACAUGGGAUAGCGAAGUCAUUGAGCGCCUAUGCGUGC (ssRNA, 2'-F pyrimidines) [SEQ 42]: “binds”; GGUCUAGCCGGAGGAGUCAGUAAUCGGUAGACC (ssRNA, 2'-F pyrimidines) [SEQ 44]: “binds”.
Same read-out and setting: next, B2: “binds”; B3: “binds”; GCAGAGGAUAGCGAAGUCAUUGAGCGCCUAUGC (ssRNA, 2'-F pyrimidines) [SEQ 39]: “binds”.
On the same count and under the same terms, the same measure for GGAUAGCGAAGUCAUUGAGCGCC (ssRNA, 2'-F pyrimidines) [SEQ 40]: “binds”.

In another data set the target is T1, IL-17 (IL-17A). As to the kind of experiment: SPR; solution A, tRNA. The following applies: tags: Peprotech; chain copies: 2. Here is the method: as §1
Regarding B4, the binding result is on record as “binds”.
The same measure, in the same setting: the same measure for B5: “binds”; for B6: “binds”.
Still for that read-out and setting: next, B7: “binds”; B8: “binds”; B9: “binds”.
On the same count and under the same terms, the same measure for B10: “binds”; for B11: “binds”.
Regarding B12, the binding result is “binds”.
Same read-out and setting: the same measure for B13: “binds”; for B14: “binds”.
Same read-out and setting: next, B15: “binds”; B16: “binds”.

In a further data set the target is T2, IL-17F (Homo sapiens, UniProt Q96PD4 Q96PD4:31-163).
T2 sequence: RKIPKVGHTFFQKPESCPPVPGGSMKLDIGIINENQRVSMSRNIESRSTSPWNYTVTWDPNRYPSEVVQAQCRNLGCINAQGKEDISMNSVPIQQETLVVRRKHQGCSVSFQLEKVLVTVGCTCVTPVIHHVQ
As to the kind of experiment: SPR; tRNA added. The following applies: tags: R&D Systems 1335-INS/CF; chain copies: 2. Here is the method: as §1
Whether the IL-17 aptamers shown by SEQ ID NOS:1-6 and 29-36 bind to IL-17F, which belongs to the same family, was determined by the surface plasmon resonance method. The amino acid sequence homology between IL-17 and IL-17F is 50%. The experiment was performed using IL-17F produced by R&D Company (1335-INS/CF), while in a state wherein tRNA was added to lessen nonspecific adsorption as described above.
Consider B4, for which the binding result is reported as “no binding”.
Same read-out and setting: next, B5: “no binding”; B1: “no binding”.
Still for that read-out and setting: next, B6: “no binding”; B7: “no binding”; B8: “no binding”.
On the same count and under the same terms, next, B9: “no binding”.
With B10, the binding result is listed as “no binding”.
Same read-out and setting: the same measure for B11: “no binding”; for B12: “no binding”; for B13: “no binding”.
As for B14, the binding result was “no binding”.
Same read-out and setting: the same measure for B15: “no binding”; for B16: “no binding”.

For the origin of these results see patent publication US20110177578, “APTAMER AGAINST IL-17 AND USE THEREOF” (The University of Tokyo, published 2011).
